# Experimental data published in US20240228645A1 (DRAGONFLY THERAPEUTICS, published 2024).
# Residue numbers refer to the chain shown, from its start. Read-outs that look alike come from different tables or passages of the source.
# B1: 3A1 (antibody, V domains shown)
# VH: QVQLQQPGAELVKPGASVKLSCKASGYTFTSYWMHWVKQRPGQGLEWIGEIDPFDSYTNYNQNFKGKATLTVDKSSSTAYMLLSSLTSDDSAVYYCARERLRLWSYYFDYWGQGTTLTVSS
# VL: DVVMTQTPLSLPVSLGDQASISCRSSQSIVHSNGNTYLEWYLQKPGQSPKLLIYKVSNRLSGVPDRFSGSGSGTDFTLKISRVEAEDLGVYYCFQGSHDPFTFGSGTKLEIK
# notes: Hybridoma clone from DNA-immunized SWR/J mice; also called clone 3A1
# B2: 7G4 (antibody, V domains shown)
# VH: B1 VH with I51V, F54S, N63K, M81I, S85N, L101V, Y107F
# VL: B1 VL
# notes: Hybridoma clone from DNA-immunized SWR/J mice; also called clone 7G4
# B3: 10H7-C5 (antibody, V domains shown)
# VH: EVQLVESGGGLVKPGGSLKLSCAASGFSFSRYAMSWVRQTPEKRLEWVATISDGGSYTHYRDNVKGRFTISRDNAKNNLNLQMSHLKSEDTAIYYCARNEMGLYFDYDVYAMDYWGQGTSVTVSS
# VL: DIVMTQTPLSLPVSLGDQASISCRSSQSLLHSNGNTYLYWYLQKPGQSPKLLIHRVSNRFSGVPDRFGGSGSGTDFTLKIIRVEAEDLGVYFCFQGTHVPWTFGGGTKLEIK
# notes: Hybridoma clone from DNA-immunized SWR/J mice; also called clone 10H7-C5
# B4: 1B3-A7 (antibody, V domains shown)
# VH: EVQLVESGGGLVKPGGSLKLSCVVSGFTFSNYAMSWVRQTPEKRLEWVATISDGGGYTYYPDSVKGRFTISRDNAKNNLYLQMSHLKSEDTAIYYCARDDLGGGNYVSSYFDVWGTGTTVTVSS
# VL: B3 VL with I2V, L15P, L30V, H54Y, G68S, I81N, W101L, G105S, I111L
# notes: Hybridoma clone from DNA-immunized SWR/J mice; also called clone 1B3-A7
# Columns and labels:
# [1] = target: T1, human BAFF-R expressed on cells (hBAFF-R-CHO isogenic CHO cells; BAFF-R+ cancer cells) (human, UniProt Q96RJ3 1-184); test: flow cytometry on hBAFFR-CHO cells, anti-mouse IgG(H+L)-PE
# T1 construct: whole, on cells; also called hBAFF-R^+ cells; BAFF-R+ CHO cells
# [2] = target: T1, human BAFF-R expressed on cells …; test: as above; remark: listed apart in the source
Binder,EC50 (read off the curve) [1] [nM],EC50 (read off the curve) [2] [nM]
B1,~0.3,–
B2,~0.3,–
B3,–,~1
B4,–,1 to 2
